Patent US6294333, “Fluorescent intensity assay for protein or peptide binding to nucleic acids” (Ingeneus Corp.)

T1: c-JUN mutant 14 DNA-binding domain peptide (K277I, C278D) (Homo sapiens, UniProt P05412 SEQ:1-132)
T1 chain: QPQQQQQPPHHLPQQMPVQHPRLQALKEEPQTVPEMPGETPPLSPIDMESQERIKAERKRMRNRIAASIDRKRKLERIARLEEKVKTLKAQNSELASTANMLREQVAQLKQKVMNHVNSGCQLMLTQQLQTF

B1: JD3F/4F (dsDNA)
DNA 1: GTGTCTTACTCATGCTT
DNA 2: AAGCATGAGTAAGACAC
B2: JD13F/14F (dsDNA)
DNA 1: CCGGCCTAAATAGGGCTTTT
DNA 2: AAAAGCCCTATTTAGGCCGG
B3: JD1F/2F (dsDNA)
DNA 1: GTGTCTGACTCATGCTT
DNA 2: AAGCATGAGTCAGACAC

What was measured:
c-JUN full length = c-JUN full length (Homo sapiens, UniProt P05412 P05412:1-331); test: fluorescence quenching; no decrease in NaCl or KCl, 21 C; settings: tags: Promega; 340 aa; chain copies: 2 (stated homodimer); label: 5'-fluorescein both strands
Description: (§1) The c-JUN :DNA binding reaction mixture (30 μl) contained the following: 9.25 mM HEPES, pH 7.9, 2.23 mM MgCl_2, 0.03 mM EDTA, 50 mM NaCl, 5.0 mM DTT, 3.75% (v/v) glycerol, 0.15 μg/μl bovine serum albumin (BSA), 0–2.0 μg pure c-JUN protein (Promega, Madison, Wis.) or 0–400 ng pure c-JUN peptide, and 0.075 pmole 5'-fluorescein labeled dsDNA oligonucleotide. When full-length c-JUN was used, 3 ng/μl poly(dI)-poly(dC) was included in the reaction mix, and added before the addition of protein and fluorescein-labeled DNA. The examples in FIGS. 1B and 1D contained 50 mM KCl in lieu of 50 mM NaCl. Wild-type and mutant c-JUN DNA-binding domain peptides were generously supplied by Dr. Dirk Bohmann (European Molecular Biology Laboratory, Heidelberg, Germany). The reaction mixtures were incubated at 21° C. for 30 minutes, placed into a quartz cuvette, irradiated with an argon ion laser beam having a wavelength of 488 nm and monitored for fluorescent emission.
These mutant DNA binding studies confirm the specificity of both the c-JUN:wild-type DNA binding conditions and the laser detection method.

[1] = biological target: T1, c-JUN mutant 14 DNA-binding domain …; test: fluorescence quenching; no decrease at 200-400 ng; settings: chain copies: 2 (inferred); label: 5'-fluorescein both strands
Description: as §1
The specificity of the laser binding assay was further tested by reacting a mutant c-JUN DNA-binding domain peptide with wild-type or mutant DNA. Specific mutations in the basic domain of c-JUN abolish DNA binding without affecting dimerization, whereas specific mutations in the leucine zipper prevent both dimerization and DNA binding.

[2] = biological target: c-JUN DNA-binding domain peptide (wild-type) (Homo sapiens, UniProt P05412 SEQ:1-132); test: fluorescence quenching; minor increase in intensity at 20-200 ng; settings: chain copies: 2 (inferred); label: 5'-fluorescein both strands
Description: as §1

Sp1 full length = Sp1 full length (UniProt P08047 P08047:2-785); test: fluorescence quenching; 200 ng Sp1, no decrease; settings: tags: Promega; label: 5'-fluorescein both strands
Description: The Sp1:DNA binding reaction mixture (30 µl) contained the following: 25 mM HEPES, pH 7.8, 100mM KCl, 100 µM ZnSO_4, 1 mM DTT, 20% (v/v) glycerol, 0.05 µg/µl BSA, 0–200 ng pure Sp1 protein (Promega) and 0.1 pmole 5'-fluorescein labeled dsDNA oligonucleotide. The reaction mixes were incubated at 0° C. for […], placed into a quartz cuvette, irradiated with an argon ion laser beam having a wavelength of 488 nm and monitored for fluorescent emission.
When 200 ng Sp1 was reacted with 0.1 pmole mutant JD13F/14F, no decrease in fluorescent intensity was observed (FIG. 4B), indicating non-binding of protein to the mutated DNA sequence. These studies confirmed the specificity of the laser detection assay for a completely different class of DNA-binding proteins.

Sequence of Sp1 full length (P08047 2-785, one chain of several): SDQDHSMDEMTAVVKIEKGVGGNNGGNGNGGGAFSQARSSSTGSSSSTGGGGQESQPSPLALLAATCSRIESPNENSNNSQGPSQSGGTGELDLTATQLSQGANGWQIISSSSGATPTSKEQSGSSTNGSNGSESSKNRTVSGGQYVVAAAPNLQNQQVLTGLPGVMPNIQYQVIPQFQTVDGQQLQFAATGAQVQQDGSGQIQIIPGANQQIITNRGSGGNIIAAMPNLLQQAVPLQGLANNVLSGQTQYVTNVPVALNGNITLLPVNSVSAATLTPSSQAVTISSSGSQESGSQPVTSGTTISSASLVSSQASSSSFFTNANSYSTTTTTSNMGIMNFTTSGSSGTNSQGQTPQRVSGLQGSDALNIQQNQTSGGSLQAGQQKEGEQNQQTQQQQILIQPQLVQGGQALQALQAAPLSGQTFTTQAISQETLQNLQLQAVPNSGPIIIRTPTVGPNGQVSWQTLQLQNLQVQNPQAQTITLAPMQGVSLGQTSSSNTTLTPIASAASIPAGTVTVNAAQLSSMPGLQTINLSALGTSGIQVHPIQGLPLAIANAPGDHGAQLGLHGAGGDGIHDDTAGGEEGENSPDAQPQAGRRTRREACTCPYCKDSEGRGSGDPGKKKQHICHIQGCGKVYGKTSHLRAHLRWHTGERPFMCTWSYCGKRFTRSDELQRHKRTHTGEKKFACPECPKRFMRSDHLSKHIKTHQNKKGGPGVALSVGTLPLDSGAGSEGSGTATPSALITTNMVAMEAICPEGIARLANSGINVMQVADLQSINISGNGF

| Binder | binding result (c-JUN full length) | binding result [1] | binding result [2] | binding result (Sp1 full length) |
| --- | --- | --- | --- | --- |
| B1 | no binding | no binding | no binding | – |
| B2 | – | – | – | no binding |
| B3 | – | no binding | – | – |
